From the supplement of paper PMC11780869

Test system: Bacillus subtilis
Experiment: cleaved RNA product abundance (RNA/gDNA barcode ratio) relative to median wild-type variant (ratio to wild type); higher = more accumulation of the downstream cleavage product
Method: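 MPRA in B. subtilis. Mutagenized RNase Y cleavage-site regions (9% mutation rate) were inserted into a barcoded reporter mRNA (truncated aprE or tetM). Cells were grown in LB at 37°C to OD600 0.3. The cleaved RNA isoform was gel-purified and its barcodes counted; the RNA:gDNA barcode ratio was normalised to the median wild-type variant, and the median over barcodes is reported per variant. The printed sequence is the variable window only; the reporter flanks are not printed.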

[1] = experiment (reporter, strain, medium): exp 2b: truncated aprE reporter, strain BJT200, cleavage site: cggR-gapA (positions -7 to +36 mutated)
[2] = experiment (reporter, strain, medium): exp 4a: truncated aprE reporter, strain BJT201 with 2% xylose (RNase J1 expressed), cleavage site: cggR-gapA (positions -7 to +36 mutated)
[3] = experiment (reporter, strain, medium): exp 8a: truncated aprE reporter, strain BJT201 with 2% xylose (RNase J1 expressed), cleavage site: glnRA (positions -5 to +31 mutated)
[4] = experiment (reporter, strain, medium): exp 6: tetM reporter, strain 168, cleavage site: cggR-gapA (positions -7 to +36 mutated)

Row | Sequence | cleaved RNA product abundance [1] | cleaved RNA product abundance [2] | cleaved RNA product abundance [3] | also measured
1 | ACAGACGAAGGAGCCGCAAAGAAGTTATTAAGGGATCAATAATGCCTCAATATAAATATCTCTCACTTATTTAAA | 0.0953 | 0.138 | – | –
2 | ACAGACGAAGGAGCCGCAAGGAAGTTATTAAGGGATGAATAATACCTCAATATAAATATCTCTCACTTATTTAAA | 0.0986 | 0.197 | – | –
3 | ACAGACGAAGGAGCCGCAAAGAATTTATTAAGGGATGACTAATCCCTCAATATAAATATCTCTCACTTATTTAAA | 0.3 | – | – | –
4 | ACAGACGAAGGAGCCGCAAAGAATTTATTAAGGGATGAATAATCCCTCAATCTAAATATCTCTCACTTATTTAAA | – | 0.102 | – | –
5 | CGACATGTCCCGCTTCTTTCATTAATCCCTTAGCAACTGTTTTGCTATATACATATACCTTTTAAGAGGAGGAAT | – | – | 0.267 | –
6 | CGACATGTCCCGCTTCTTTCATTAATCAGTTAGCAACTGTTTTTCTATATACATTTACCTTTTAAGAGGAGGAAT | – | – | 0.642 | –
7 | ACAGACGAAGGAGCCGCAAAGAAGTTATTAAGGGATTAATAATCCATCAATATAAATATCTCTCACTTATTTAAA | 0.401 | 0.288 | – | –
8 | ACAGACGAAGGAGCCGCAAAGAAGTTATTTAGGGATGAATAATCCCTCAATATAAACATCTCTCACTTATTTAAA | – | 0.701 | – | –
9 | ACAGACGAAGGAGCCGCAAAGAAGTTATTAAGGGATCAATAAACCCTCAATATAAATATCTCTCACTTATTTAAA | 0.518 | 0.429 | – | –
10 | ACAGACGAAGGAGCCGCAAAGAAGTTATTAAGGGATGACTAATCCTTCAATATAAATATCTCTCACTTATTTAAA | – | 0.251 | – | –
11 | ACAGACGAAGGAGCCGCAAAGGAGTTATTAAGGGATGAATAATTCCTCAATATAAATATCTCTCACTTATTTAAA | 0.328 | – | – | –
12 | ACAGACGAAGGAGCCGCAAAGAAGTTATTAAGGGATAAATAATCCCTCAATATACATATCTCTCACTTATTTAAA | – | 0.699 | – | –
13 | ACAGACGAAGGAGCCGCAAAGAAGTGATTAAGGGATGAATTATCCCTCAATATAAATATCTCTCACTTATTTAAA | – | 0.366 | – | –
14 | CGACATGTCCCGCTTCTTTCATTAATCCGTTAGCAAGTGTTTTGCTATATCCATTTACCTTTTAAGAGGAGGAAT | – | – | 0.273 | –
15 | ACAGACGAAGGAGCCGCAAAAAAGTAATTAAGGGATGAATAATCCCTCAATATAAATATCTCTCACTTATTTAAA | 0.304 | 0.342 | – | –
16 | CGACATGTCCCGCTTCTTTCATTAATCTGTTAGCAACTGTTTTTCTATATACATTTACCTTTTAAGAGGAGGAAT | – | – | 0.483 | –
17 | ACAGACGAAGGAGCCGCAAAGAAGTTATTAAGGGACGAATAATCCCTCAATATAAATAGCTCTCACTTATTTAAA | – | 0.3 | – | –
18 | ACAGACGAAGGAGCCGCAAAGAAGTTATTAAGGGATGAATAATCCATCAATACAAATATCTCTCACTTATTTAAA | – | 0.0901 | – | –
19 | ACAGACGAAGGAGCCGCATAGAAGTTATTAAGGGATGAATAATCCCTTAATATAAATATCTCTCACTTATTTAAA | 1.12 | 0.448 | – | –
20 | ACAGACGAAGGAGCCGCAAAGAAGTTATTAAGGGATGAATTATCCCTTAATATAAATATCTCTCACTTATTTAAA | – | 0.438 | – | –

Row | Sequence | cleaved RNA product abundance [1] | cleaved RNA product abundance [2] | cleaved RNA product abundance [3] | also measured
21 | ACAGACGAAGGAGCCGCAAATAAGTTATTAAGGGAGGAATAATCCCTCAATATAAATATCTCTCACTTATTTAAA | 0.554 | 0.469 | – | –
22 | CGACATGTCCCGCTTCTTTCATTAATCCGTTACCAACTGTTTTGCTATTTACATTTACCTTTTAAGAGGAGGAAT | – | – | 0.118 | –
23 | CGACATGTCCCGCTTCTTTCATTAATCCGTTAGCAACTGTTTTGCTATAGACATTTACCTTTTAAGAGGAGGAAT | – | – | 0.624 | –
24 | ACAGACGAAGGAGCCGCAAAGAAGTTATTAAGGGACGAATAATCCCTCAATATAAATATCTCTCACTTATTTAAA | 0.691 | 0.697 | – | cleaved RNA product abundance [4]: 0.805
25 | CGACATGTCCCGCTTCTTTCATTATTCCGTTAGAAACTGTTTTGCTATATACACTTACCTTTTAAGAGGAGGAAT | – | – | 0.302 | –
26 | ACAGACGAAGGAGCCGCAAAGAAGTTATGAAGGAATGAATAATCCCTCAATATAAATATCTCTCACTTATTTAAA | 0.139 | 0.0818 | – | –
27 | ACAGACGAAGGAGCCGCAAAGAAATTATTAAGGGATGAATAATCCCTCAATATAAATCTCTCTCACTTATTTAAA | – | 0.66 | – | –
28 | ACAGACGAAGGAGCCGCAAAGAAGTTATTAAGGGAAGTATAATCCCTCAATATAAATATCTCTCACTTATTTAAA | 0.599 | – | – | –
29 | ACAGACGAAGGAGCCGCAACGAAGTTATTAAGGGATGAACAATCCCTCAATATAAATATCTCTCACTTATTTAAA | – | 0.631 | – | –
30 | ACAGACGAAGGAGCCGCAAATAAGTTATTAAGGGATGATTAATCCCTCAATATAAATATCTCTCACTTATTTAAA | 0.783 | 0.697 | – | –
31 | ACAGACGAAGGAGCCGCAAAGAAGTAATTAAGGGATGAATAATCGCTCAATATAAATATCTCTCACTTATTTAAA | – | 0.0828 | – | –
32 | ACAGACGAAGGAGCCGCAAAGAAGTTATTAAGGGATATATAATCCCTCAATATAAATATCTCTCACTTATTTAAA | – | 0.738 | – | –
33 | CGACATGTCCCGCTTCTTTCATTAATCCGTTAGCAACTTTTTTGTTATATACATTTACCTTTTAAGAGGAGGAAT | – | – | 0.748 | –
34 | CGACATGTCCCGCTTCTTTCATTAATCCGTTAGAAACTGTTTTGCTGTATACATTTACCTTTTAAGAGGAGGAAT | – | – | 0.085 | –
35 | CGACATGTCCCGCTTCTTTCATTAATCCGTAAGCAACTGTTTTTCTATATACATTTACCTTTTAAGAGGAGGAAT | – | – | 0.508 | –
36 | CGACATGTCCCGCTTCTTTCATTAATCCGTTAGCTACTGTTTTGCTATATTCATTTACATTTTAAGAGGAGGAAT | – | – | 0.64 | –
37 | ACAGACGAAGGAGCCGCCAAGAAGTTATTAAGTGATGAATAATCCCTCAATATAAATATCTCTCACTTATTTAAA | – | 0.146 | – | –
38 | ACAGACGAAGGAGCCGCAAAGAAGTTATTAAGGGATGACTAATCCCTCAATATATATATCTCTCACTTATTTAAA | 0.293 | – | – | –
39 | ACAGACGAAGGAGCCGCAAAAAACTTATTAAGGGATGATTAATCCCTCAATATAAATATCTCTCACTTATTTAAA | 0.325 | – | – | –
40 | ACAGACGAAGGAGCCGCAAAGAAGTTATTAAGGGACGAATAATACCTCAATATAAATATCTCTCACTTATTTAAA | – | 0.12 | – | –

Row | Sequence | cleaved RNA product abundance [1] | cleaved RNA product abundance [2] | cleaved RNA product abundance [3] | also measured
41 | ACAGACGAAGGAGCCGCAAAGAAGTCATTAAGGGATGAAAAATCCCTCAATATAAATATCTCTCACTTATTTAAA | 0.173 | 0.2 | – | –
42 | ACAGACGAAGGAGCCGCAAAGAAGTTATCAAGGGATCAATAATCCCTCAATATAAATATCTCTCACTTATTTAAA | 0.24 | – | – | –
43 | ACAGACGAAGGAGCCGCAAAGAAGTTATTAAGGGATGAATAAACCCTCAGTATAAATATCTCTCACTTATTTAAA | – | 0.211 | – | –
44 | CGACATGTCCCGCTTCTTTCATTAATCCGTTATCAAATGTTTTGCTATATACATTTACCTTTTAAGAGGAGGAAT | – | – | 0.283 | –
45 | CGACATGTCCCGCTTCTTTCATTAATCCGTTAGCAACAGATTTGCTATATACATTTACCTTTTAAGAGGAGGAAT | – | – | 0.68 | –
46 | ACAGACGAAGGAGCCGCAAAGACGTCATTAAGGGATGAATAATCCCTCAATATAAATATCTCTCACTTATTTAAA | – | 0.449 | – | –
47 | CGACATGTCCCGCTTCTTTCATTAATGCGTTAGCAACTGTGTTGCTATATACATTTACCTTTTAAGAGGAGGAAT | – | – | 0.406 | –
48 | ACAGACGAAGGAGCCGCAAAGAAGTTATTAACGGATGAATAATCCCTCAATATAAATATCTCTCACTTATTTAAA | 0.133 | 0.177 | – | cleaved RNA product abundance [4]: 0.195
49 | CGACATGTCCCGCTTCTTTCATTAATCCGTTAGCAACTGTTTTGCTATATACATATTCCTTTTAAGAGGAGGAAT | – | – | 0.511 | –
50 | ACAGACGAAGGAGCCGCAAAGAAGTTATTAAGGGATGAATAATCCTTCAACATAAATATCTCTCACTTATTTAAA | 0.159 | – | – | –
51 | CGACATGTCCCGCTTCTTTCATTAATCCGTTAGCAACTGTTTTGCTATATACATTTAACATTTAAGAGGAGGAAT | – | – | 0.609 | –
52 | ACAGACGAAGGAGCCGCAAAGAAGTTATTAAGGGATGAATAATGCCTAAATATAAATATCTCTCACTTATTTAAA | – | 0.149 | – | –
53 | ACAGACGAAGGAGCCGCAAAGAAGTTATTAAGGGATGAATAAACCCTCAATATAGATATCTCTCACTTATTTAAA | 0.365 | 0.342 | – | –
54 | CGACATGTCCCGCTTCTTTCATTAATCCGTTAGCAATTGTTTTGCTATATACATTCACCTTTTAAGAGGAGGAAT | – | – | 0.849 | –
55 | ACAGACGAAGGAGCCGCAAAGAAGTTATAAACGGATGAATAATCCCTCAATATAAATATCTCTCACTTATTTAAA | 0.132 | 0.181 | – | –
56 | CGACATGTCCCGCTTCTTTCATTAATCCGTAAGCAACTGTTTTGCTATATACATTTACGTTTTAAGAGGAGGAAT | – | – | 0.475 | –
57 | ACAGACGAAGGAGCCGCAAAGAAGTTATTAAGGGATGAAAAATCCCTCAATAAAAATATCTCTCACTTATTTAAA | – | 0.217 | – | –
58 | ACAGACGAAGGAGCCGCAAAGAAGTTATTAAGGGATGAATAATCCATCGATATAAATATCTCTCACTTATTTAAA | – | 0.112 | – | –
